Results on 22 molecules are retold here after patent US20190225675A1 (TUFTS UNIVERSITY, published 2019).

A word on the EC50 (read off the curve): it is the concentration that produces a half-maximal response. What is called Kd is the concentration at which binding is half-saturated. Low readings indicate higher affinity, high ones lower affinity.

Where two headings read alike, the source gives them in different places.

The target in test [1] is T1, Shiga-like toxin 2 (Stx2) (UniProt P09385 23-319; P09386 20-89).
T1 sequence 1: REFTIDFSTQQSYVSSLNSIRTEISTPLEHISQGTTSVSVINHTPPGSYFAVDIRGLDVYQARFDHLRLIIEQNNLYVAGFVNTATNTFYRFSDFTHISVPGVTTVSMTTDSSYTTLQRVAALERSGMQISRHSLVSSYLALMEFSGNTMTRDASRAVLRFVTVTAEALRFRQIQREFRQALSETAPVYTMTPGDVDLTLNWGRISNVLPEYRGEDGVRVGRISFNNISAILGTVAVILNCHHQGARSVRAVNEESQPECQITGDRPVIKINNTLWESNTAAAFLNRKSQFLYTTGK
T1 sequence 2: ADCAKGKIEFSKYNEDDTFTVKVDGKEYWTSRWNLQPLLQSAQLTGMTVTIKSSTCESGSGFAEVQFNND

The target of test [2] is T1, Shiga-like toxin 2 (Stx2). This is another data set of the same source.
Test [3] has as its target anthrax protective antigen (PA) (Bacillus anthracis, UniProt P13423 30-764). As to the kind of experiment: legend of FIG. 29A: VHHs identified that bind each target as indicated.
For test [4], the target named is T2, Botulinum neurotoxin serotype A1 (BoNT/A) holotoxin (Clostridium botulinum, UniProt P0DPI0 2-1296).
T2 construct: mature
As to the kind of experiment: VHH selection; binding competition.

The target in test [5] is T1, Shiga-like toxin 2 (Stx2). The source holds these as a separate data set.
For test [6], the target named is T1, Shiga-like toxin 2 (Stx2). The source holds these as a separate data set.
The target of test [7] is T2, Botulinum neurotoxin serotype A1 …. As to the kind of experiment: method not stated.
Test [8] concerns the target T3, Clostridium difficile toxin A (TcdA) (Clostridium difficile, UniProt P16154 1-2710).
T3 construct: mature
The test can be described thus: ELISA on plates coated with TcdA, HRP-conjugated detection antibody, A450.

In test [9] the target is T4, Clostridium difficile toxin B (TcdB) (Clostridium difficile, UniProt P18177 2-2366).
T4 construct: mature
T4 sequence (P18177 2-2366): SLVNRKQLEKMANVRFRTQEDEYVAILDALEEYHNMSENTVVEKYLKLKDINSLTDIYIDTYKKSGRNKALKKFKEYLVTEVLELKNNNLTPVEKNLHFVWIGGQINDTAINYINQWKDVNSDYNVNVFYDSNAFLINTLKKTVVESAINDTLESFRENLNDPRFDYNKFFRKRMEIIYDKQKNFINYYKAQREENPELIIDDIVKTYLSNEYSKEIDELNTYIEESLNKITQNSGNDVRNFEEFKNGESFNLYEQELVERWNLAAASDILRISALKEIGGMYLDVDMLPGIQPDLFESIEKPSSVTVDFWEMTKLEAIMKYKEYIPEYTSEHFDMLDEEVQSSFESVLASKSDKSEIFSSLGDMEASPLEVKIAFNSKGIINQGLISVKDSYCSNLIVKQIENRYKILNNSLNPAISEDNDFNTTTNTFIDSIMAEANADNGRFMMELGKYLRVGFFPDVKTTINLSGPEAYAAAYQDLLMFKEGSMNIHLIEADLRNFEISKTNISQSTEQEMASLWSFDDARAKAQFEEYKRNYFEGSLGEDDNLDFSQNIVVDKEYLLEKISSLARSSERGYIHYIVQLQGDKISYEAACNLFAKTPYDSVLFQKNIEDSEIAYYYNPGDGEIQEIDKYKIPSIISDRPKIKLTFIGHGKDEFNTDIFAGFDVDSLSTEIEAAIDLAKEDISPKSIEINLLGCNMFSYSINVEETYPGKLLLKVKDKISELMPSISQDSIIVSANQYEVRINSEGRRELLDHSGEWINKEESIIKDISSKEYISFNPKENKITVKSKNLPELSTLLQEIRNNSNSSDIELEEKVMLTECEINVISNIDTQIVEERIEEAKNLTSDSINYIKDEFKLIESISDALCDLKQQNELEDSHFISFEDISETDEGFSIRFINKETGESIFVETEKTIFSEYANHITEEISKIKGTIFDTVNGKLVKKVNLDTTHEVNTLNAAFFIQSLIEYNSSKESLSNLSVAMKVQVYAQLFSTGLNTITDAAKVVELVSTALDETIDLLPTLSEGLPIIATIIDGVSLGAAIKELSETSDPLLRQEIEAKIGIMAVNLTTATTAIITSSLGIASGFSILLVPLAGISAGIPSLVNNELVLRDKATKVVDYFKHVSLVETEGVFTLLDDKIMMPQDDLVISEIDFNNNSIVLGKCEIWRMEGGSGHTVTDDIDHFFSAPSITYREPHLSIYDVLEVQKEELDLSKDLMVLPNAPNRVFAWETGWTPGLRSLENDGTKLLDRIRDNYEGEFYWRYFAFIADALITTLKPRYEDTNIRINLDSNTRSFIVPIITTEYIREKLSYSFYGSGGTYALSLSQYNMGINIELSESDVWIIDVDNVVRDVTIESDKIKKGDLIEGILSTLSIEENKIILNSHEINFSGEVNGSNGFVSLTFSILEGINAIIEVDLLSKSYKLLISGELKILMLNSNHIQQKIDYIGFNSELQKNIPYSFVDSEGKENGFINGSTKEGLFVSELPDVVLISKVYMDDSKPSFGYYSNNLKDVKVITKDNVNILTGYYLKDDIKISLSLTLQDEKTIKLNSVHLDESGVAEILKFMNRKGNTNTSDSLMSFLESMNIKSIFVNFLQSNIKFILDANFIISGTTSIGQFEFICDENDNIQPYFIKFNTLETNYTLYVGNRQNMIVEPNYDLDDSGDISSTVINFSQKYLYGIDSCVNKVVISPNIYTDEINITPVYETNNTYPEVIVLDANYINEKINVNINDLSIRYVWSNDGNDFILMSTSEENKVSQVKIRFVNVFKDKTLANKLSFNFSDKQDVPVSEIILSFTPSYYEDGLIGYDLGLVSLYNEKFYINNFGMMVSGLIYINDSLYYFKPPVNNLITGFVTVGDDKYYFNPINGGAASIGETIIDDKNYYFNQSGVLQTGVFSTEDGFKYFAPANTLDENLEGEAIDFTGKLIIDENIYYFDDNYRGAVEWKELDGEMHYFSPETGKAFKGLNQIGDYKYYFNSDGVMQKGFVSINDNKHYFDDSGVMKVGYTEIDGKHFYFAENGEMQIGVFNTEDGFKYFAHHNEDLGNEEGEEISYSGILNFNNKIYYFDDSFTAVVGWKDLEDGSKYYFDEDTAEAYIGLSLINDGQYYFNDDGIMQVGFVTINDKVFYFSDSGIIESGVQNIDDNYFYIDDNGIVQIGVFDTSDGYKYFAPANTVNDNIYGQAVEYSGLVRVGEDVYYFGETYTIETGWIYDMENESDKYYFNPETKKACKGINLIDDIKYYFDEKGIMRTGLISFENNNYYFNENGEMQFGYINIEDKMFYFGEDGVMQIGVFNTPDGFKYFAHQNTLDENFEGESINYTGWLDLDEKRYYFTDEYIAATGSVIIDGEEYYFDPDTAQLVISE
The test can be described thus: ELISA, toxin-coated plates, HRP-conjugated detection antibody. A general note: In an ELISA, binding on a coated surface is turned into a signal by an enzyme label.

Sequence of anthrax protective antigen (PA) (P13423 30-764 limits assumed): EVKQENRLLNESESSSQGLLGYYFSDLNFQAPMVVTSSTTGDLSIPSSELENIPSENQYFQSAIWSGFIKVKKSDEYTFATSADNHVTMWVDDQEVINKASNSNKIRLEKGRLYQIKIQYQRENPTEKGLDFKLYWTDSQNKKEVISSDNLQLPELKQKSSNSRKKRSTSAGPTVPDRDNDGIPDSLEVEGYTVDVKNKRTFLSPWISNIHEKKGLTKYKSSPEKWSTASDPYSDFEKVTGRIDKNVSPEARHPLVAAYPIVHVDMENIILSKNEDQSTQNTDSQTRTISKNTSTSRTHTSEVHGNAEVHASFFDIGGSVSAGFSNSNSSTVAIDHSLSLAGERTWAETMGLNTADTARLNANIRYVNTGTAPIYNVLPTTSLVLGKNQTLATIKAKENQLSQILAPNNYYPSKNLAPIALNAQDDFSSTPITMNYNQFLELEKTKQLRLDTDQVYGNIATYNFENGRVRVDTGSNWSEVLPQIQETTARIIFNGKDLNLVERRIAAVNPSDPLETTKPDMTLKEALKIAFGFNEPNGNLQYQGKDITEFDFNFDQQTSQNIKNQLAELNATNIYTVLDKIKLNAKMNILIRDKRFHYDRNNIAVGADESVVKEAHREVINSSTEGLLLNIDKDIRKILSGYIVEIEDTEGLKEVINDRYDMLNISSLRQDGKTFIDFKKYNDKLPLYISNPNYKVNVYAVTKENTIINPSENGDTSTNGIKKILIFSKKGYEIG

B1: Stx2-D10 (VHH)
VHH: TGGLVQAGGSLRLSCAASGVPFSDYTMAWFRQAPGKEREVVARITWRGGGPYYGNSGNGRFAISRDIAKSMVYLHMDSLKPEDTAVYYCAASRLRPALASMASDYDYWGQGTQVSVSS
Turning to B1, the 50% effective concentration (EC50 (read off the curve)) in [1] and in [2] was approximately 0.3 nM each time.

B2: JIJ-E9 (VHH)
VHH: QVQLVETGGLVQPGGSLRLSCAASRSTTATIYSMNWYRQAPGKQRELVAGMTSDGQTNYATSVKGRFTISRDNAKNTVYLLMNSLKLEDTAVYYCYVKPWRLQGWDYWGQGTQVTVSS
Consider B2, for which the binding result in test [3] is given as “binds”.

B3: JDO-E9 (VHH)
VHH: QVQLVESGGGLVRPGGSLRLSCVVSGFAYEMPMMGWYRQAPGNQRELVATIGTGGRMNYADSVKGRFTISRDNAKNTVYLQMNSLKPEDTAAYYCKIEFTNYWGQGTQVTVSS
On to B3, for which, in test [4], the binding result is given as “binds”.

B4: JIK-B10 (VHH)
VHH: QVQLVETGGGLVQPGGSLRLSCAASGFTFSSYRMSWYRQAAGKERDVVATITANGVPTGYADSVMGRFTISRDNAKNTVYLEMNSLNPEDTAVYYCNAPRLHTSVGYWGQGTQVTVSS
Take B4: the binding result in [3] was “binds”.

B5: JIK-F4 (VHH)
VHH: TGGGLVQAGGSLRLSCAASGRYAMGWFRQAPGKEREFVATISRSGAIREYADSVKGRFTISRDGAENTVYLEMNSLKPDDTAIYVCAEGRGATFNPEYAYWGQGTQVTVSS
For the molecule B5, the binding result in test [3] is given as “binds”.

B6: Stx-A5 (VHH)
VHH: SGGGLVQPGGSLRLSCAALEFTLEDYAIAWFRQAPGKEREGVSCISKSGVTKYTDSVKGRFTVARDNAKSTVILQMNNLRPEDTAVYNCAAVRPVFVDSVCTLATRYTYWGEGTQVTVSS
Take B6: the “EC50 (read off the curve)” value in [5], in test [6] and in [2] was approximately 0.8 nM in each case.

B7: JHD-B6 (VHH)
VHH: QVQLVESGGGLVQPGGSLRLSCAASGSSFSRYAMRWYRQAPGKQRELVANINSRGTSNYADSVKGRFTISRDNAKNTVYLQMNSLKPEDTAVYYCNAEWLGRSEPSWGQGTQVTVSS
Turning to B7, in test [3], the binding result was “binds”.

B8: JDQ-B2 (VHH)
VHH: QVQLVESGGGLVQPGGSLRLSCTVSGSIFDLPGMNWYRQAPGAQRELVADISSDGRRTNYADSVKGRFTMSRDNAKKTVYLQMDSLKPDDTAVYYCNVKFTHHWGQGIQVTVSS
As for B8, in test [4], the binding result is reported as “binds”.

B9: JDQ-C5 (VHH)
VHH: QVQLVESGGGLVQPGGSLRLSCTVSGSIFGLPGMSWYRQAPGAQRELVADISSDGGRTHYADSVKGRFTISRDNDKKTVYLQMDSLKPDDTAVYYCNVKFTHHWGQGIQVTVSS
As for B9, the binding result in test [4] is “binds”.

B10: Stx-A4 (VHH)
VHH: SGGGLVQPGGSLRLSCAASGFTLGSYHIGWFRHPPGKEREGTSCLSSRGDYTKYAEAVKGRFTISRDNTKSTVYLQMNNLKPEDTGIYVCAAIRPVLSDSHCTLAARYNYWGQGTQVTVSS
For the molecule B10, the “EC50 (read off the curve)” value in test [6] was approximately 8 nM.

B11: JIJ-D3 (VHH)
VHH: QVQLVETGGLVQPGGSLRLSCAASGLTFSSTAMAWFRQAPGKEREFVARISGAGITIYYSDSVKDRFTISRNNVENTVYLQMNSLKTEDTAVYYCAARRNTYTSDYNIPARYPYWGQGTQVTVSS
Turning to B11, the binding result in test [3] was “binds”.

B12: JIJ-F11 (VHH)
VHH: QVQLVESGGGLVQPGGSLRLSCAAPESIVNSRTMAWYRQAPGKQRERVATITTAGSPNYADSVKGRFAISRDNAKNTVYLQMNSLKPEDTAVYYCNTLLSTLPYGQGTQVTVSS
Take B12: the binding result in test [3] is listed as “binds”.

B13: JDQ-F9 (VHH)
VHH: QVQLVESGGGLVQDGGSLRLSCTTSGSIDSFNAIEWYRQAPGKQRELVASISSDGRRTNYADSVKGRFTISGDNAKNTVYLQMNSLKPEDTAVYYCHRPFTHYWGQGTQVTVSS
As for B13, in test [4], the binding result is reported as “binds”.

B14: JIJ-A12 (VHH)
VHH: QVQLVESGGGLVQPGGSLRLSCAASGIIFSIYTMGWYRQAPGKQRELVAAIPSGPSANATDSVGGRFTITRDNAENTVYLQMNDLKPEDTAVYYCNARRGPGIKNYWGQGTQVTVSS
For the molecule B14, the binding result in test [3] is on record as “binds”.

B15: JIJ-C11 (VHH)
VHH: QVQLVETGGGLVQPGGSLGLSCVVASGRSINNYGMGWYRQAPGKQRELVAQISSGGTTNYAGSVEGRFTISRDNVKKMVYLQMNSLKPEDTAVYYCNSLLRTFSWGQGTQVTVSS
Turning to B15, the binding result in [3] is “binds”.

B16: JIK-B8 (VHH)
VHH: QVQLVESGGGLVQPGGSLGLSCVVASERSINNYGMGWYRQAPGKQRELVAQISSGGTTNYADSVEGRFTISRDNVKKMVHLQVNSLKPEDTAVYYCNSLLRTFSWGQGTQVTVSS
In the case of B16, the binding result in test [3] was “binds”.

B17: JIJ-B8 (VHH)
VHH: QVQLVESGGGLVQPGGSLSVSCAASGSIARPGAMAWYRQAPGKERELVASITPGGLTNYADSVTGRFTISRDNAKRTVYLQMNSLQPEDTAVYYCHARIIPLGLGSEYRDHWGQGTQVTVSS
As for B17, in [3], the binding result is given as “binds”.

B18: JHE-D9 (VHH)
VHH: QVQLVESGGGLVQPGGSLRLSCAASGFIFSLYTMRWHRQAPGKERELVATITSATGITNYADSVKGRFIISRDDAKKTGYLQMNSLKPEDTAVYYCNAVRTTVSRDYWGQGTQVTVSS
In the case of B18, the binding result in test [3] is listed as “binds”.

B19: JIK-B12 (VHH)
VHH: QVQLVESGGGLVQAGNSLRLSCTASGVIFSIYTMGWFRQAPGKEREFVAAIGVADGTALVADSVTGRFTISRDNAKNTVYLHMNSLKPEDTAVYSCAAYLSPRVQSPYITDSRYQLWGQGTQVTVSS
Consider B19, for which, in test [3], the binding result is recorded as “binds”.

B20: scFv#7 (scFv)
scFv: SYELTQPPSMSVALGQTAKVTCQGDNLENFYVQWHQQKPGQAPVTVIFQDNKRPSGIPDRFSGSNSGNTATLTISGARTEDEADYYCQSGHSSIGGVFGSGTSLTVLGQPAAAGGGGSGGGGSGGGGSARQVQLQESGPSLVKPSQTLSLTCTVSGFSLTGNSVTWVRQAPGNVPEWLGGISRGGRTYYDTALKSRLSITRDTSKRQVSLSLSSVTTEDTAMYFCARSAYSTLYDYEYAADIYDWGPGLLVTVSSTSGAPVPYPDPLEPRAA
In test [7], B20 returned a Kd of approximately 1 nM.

B21: Stx2-G1 (VHH)
VHH: SGGGLVQPGESLRLSCVASASTFSTSLMGWVRQAPGKGLESVAEVRTTGGTFYAKSVAGRFTISRDNAKNTLYLQMNSLKAEDTGVYYCTAGAGPIATRYRGQGTQVTVSS
Consider B21, for which the “EC50 (read off the curve)” value in [5] and in test [1] was approximately 0.1 nM throughout.

B22: VNA-TcdA (toxin A binding heterodimer, AH3+AA6) (bispecific antibody)
chain: QGVQSQLQLVESGGGLVQPGGSLRLSCAASGFTLDYSSIGWFRQAPGKEREGVSCISSSGDSTKYADSVKGRFTTSRDNAKNTVYLQMNSLKPDDTAVYYCAAFRATMCGVFPLSPYGKDDWGKGTLVTVSSEPKTPKPQGGGGSGGGGSGGGGSQGVQSQVQLVESGGGLVQPGGSLRLSCAASGFTFSDYVMTWVRQAPGKGPEWIATINTDGSTMRDDSTKGRFTISRDNAKNTLYLQMTSLKPEDTALYYCARGRVISASAIRGAVRGPGTQVTVSSEPKTPKPQ
Consider B22, for which the “EC50 (read off the curve)” value in [8] is approximately 2 nM. Moreover, the binding result in [9] is “no binding (tested: up to 125 nM)”.
